The values that follow come from PMC11055803, “ANCUT1, a novel thermoalkaline cutinase from Aspergillus nidulans and its application on hydroxycinnamic acids lipophilization” (Biotechnology Letters, 2024).

The data set deals with T1, CC(=O)Oc1ccc([N+](=O)[O-])cc1.
T1 construct: native secreted enzyme purified from culture broth (ammonium sulfate, ultrafiltration, continuous elution electrophoresis, renatured with Triton X-100); 22 kDa, pI 6; no glycosylation detected
Put plainly: Lineweaver-Burk, p-nitrophenol release. It counts as biochemical, Aspergillus nidulans. The conditions noted are these: Tris-HCl pH 9.0, 37 °C, substrate 0.5-2 mM. From the text: Lineweaver-Burk, p-nitrophenol release on ANCUT1

On to ANCUT1 (Aspergillus nidulans FGSC A4), for which the Km is on record as 18.29 mM, the Vmax was found to be 58800 µM/min, the kcat was determined as 3.67 s⁻¹ and the kcat/Km was found to be 201 M⁻¹ s⁻¹.

For orientation: Km means the concentration of substrate that gives half-maximal velocity. The term Vmax denotes the rate approached at saturating substrate. In general, kcat refers to the number of substrate molecules converted per active site and unit of time at saturation. A word on the kcat/Km: it is the turnover number divided by the Michaelis constant.
